Patent publication US20090202533A1 (CSL, published 2009)
One block for each molecule: values may come before it.

Columns and labels:
IL-11R-Fc [1] = assay: competition ELISA on IL-11R-Fc
[2] = target: T1, murine IL-11R on Ba/F3 cells stably transfected with murine IL-11R/gp130 (murine, UniProt Q64385 24-432); assay: cell-based or functional assay
T1 sequence (looked up): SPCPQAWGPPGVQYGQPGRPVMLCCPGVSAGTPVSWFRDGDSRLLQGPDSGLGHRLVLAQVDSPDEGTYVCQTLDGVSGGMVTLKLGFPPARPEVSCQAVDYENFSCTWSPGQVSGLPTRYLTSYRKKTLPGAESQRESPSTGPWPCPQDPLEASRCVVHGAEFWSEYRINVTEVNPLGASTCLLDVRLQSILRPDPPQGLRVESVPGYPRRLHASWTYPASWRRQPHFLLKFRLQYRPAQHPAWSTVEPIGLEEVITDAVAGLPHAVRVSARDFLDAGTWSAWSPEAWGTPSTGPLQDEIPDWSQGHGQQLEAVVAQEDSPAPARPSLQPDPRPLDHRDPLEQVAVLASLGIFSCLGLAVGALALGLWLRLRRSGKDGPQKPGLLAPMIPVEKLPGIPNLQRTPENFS

IL-11R-Fc [3] = assay: IL-11R binding ELISA

fold higher binding affinity than murine W147A IL-11 (IL-11R-Fc [1]): 20 fold
Molecule: IL-11 mutein of SEQ ID NO: 1 (AMSAG at positions 58-62 of mature murine IL-11 replaced with PAIDY, tryptophan at position 147 replaced with alanine), N-terminal His-tagged (from UniProt P47873 22-199) (ligand)

ability to antagonize IL-11-induced Ba/F3 cell proliferation, relative to non-PEGylated mutein [2]: ~10 fold
fold reduction of binding affinity relative to non-PEGylated mutein (IL-11R-Fc [3]): 5 fold
B1: PEGylated mutein (mutein of SEQ ID NO: 3 with a single 40 kDa PEG moiety on the Cys introduced at position 147) (ligand)
chain: VSSDPRADLDSAVLLTRSLLADTRQLAAQMRDKFPADGDHSLDSLPTLPAIDYTLGSLQLPGVLTRLRVDLMSYLRHVQWLRRAGGPSLKTLEPELGALQARLERLLRRLQLLMSRLALPQAAPDQPVIPLGPPASACGSIRAAHAILGGLHLTLDWAVRGLLLLKTRL
modifications: mPEG2-maleimide (single 40 kDa PEG moiety) on the Cys introduced at position 147 (position as printed, numbering of mature murine IL-11)
